# Experimental data: patent publication EP4722247A1 (Oricell Therapeutics Co., Ltd., dated 2026)
# Read-outs that look alike come from different tables or passages of the source.
# T1: Human CD39-His protein (CD9-H52H4, ACRO Biosystems) (human, UniProt P49961 38-478)
# T1 construct: Purchased protein; also called human CD39-His antigen; human CD39 protein; not shown: His tag
# T1 sequence (looked up): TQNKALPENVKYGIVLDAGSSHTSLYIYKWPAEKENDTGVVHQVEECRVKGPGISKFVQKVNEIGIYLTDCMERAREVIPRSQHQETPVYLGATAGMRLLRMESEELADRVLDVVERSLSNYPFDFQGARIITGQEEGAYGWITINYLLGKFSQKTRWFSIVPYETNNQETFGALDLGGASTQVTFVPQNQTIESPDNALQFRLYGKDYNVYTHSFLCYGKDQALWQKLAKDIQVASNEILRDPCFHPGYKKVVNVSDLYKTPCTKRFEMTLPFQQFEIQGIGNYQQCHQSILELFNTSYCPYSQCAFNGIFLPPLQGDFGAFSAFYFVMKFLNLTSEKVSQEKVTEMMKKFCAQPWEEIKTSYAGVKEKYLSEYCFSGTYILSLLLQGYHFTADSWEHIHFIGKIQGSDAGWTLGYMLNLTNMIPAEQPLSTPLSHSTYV
# How the values were obtained:
# [1] = molecular target: T1, Human CD39-His protein (CD9-H52H4, ACRO …); test: BLI (Fortebio), antibody on AHC probe, human CD39-His in solution
# [2] = molecular target: T1, Human CD39-His protein (CD9-H52H4, ACRO …); test: as above; remark: listed apart in the source
binder,measurement,setting,value
"control antibody H5L5 (Patent CN112714768A) (antibody, V domains shown, Anti-CD39 control antibody; also called H5L5 control antibody) VH: QVQLVQSGAEVKKPGASVKVSCKASGYNLKDTFLHWVRQAPGQGLEWMGRIDPANGNIKYDPKFQGRVTITADTSANTAYMELISLRSEDTAVYYCANSPYYYGSGYRIFDVWGQGTTVTVSS VL: QIVLTQSPATLSLSPGERATLSCSAFSSVNYMHWYQQKPGQAPRLLIYTTSNLASGIPTRFSGSGSGTSYTLTISSLEPEDFAVYYCQQRSTYPFTFGQGTKLEIKR",Kd,[1],1.28 nM
same,koff,[1],0.000408 s⁻¹
same,kon,[1],320000 M⁻¹ s⁻¹
same,Kd,[2],0.802 nM
same,koff,[2],0.000168 s⁻¹
same,kon,[2],210000 M⁻¹ s⁻¹
